Reference: patent publication US20160230173A1

Molecular target: T1, Wild-type glucocorticoid receptor, Myc-DDK tagged NR3C1 (Origene catalog # RC220189), substrate of the CASP1 enzymatic assay
T1 chain: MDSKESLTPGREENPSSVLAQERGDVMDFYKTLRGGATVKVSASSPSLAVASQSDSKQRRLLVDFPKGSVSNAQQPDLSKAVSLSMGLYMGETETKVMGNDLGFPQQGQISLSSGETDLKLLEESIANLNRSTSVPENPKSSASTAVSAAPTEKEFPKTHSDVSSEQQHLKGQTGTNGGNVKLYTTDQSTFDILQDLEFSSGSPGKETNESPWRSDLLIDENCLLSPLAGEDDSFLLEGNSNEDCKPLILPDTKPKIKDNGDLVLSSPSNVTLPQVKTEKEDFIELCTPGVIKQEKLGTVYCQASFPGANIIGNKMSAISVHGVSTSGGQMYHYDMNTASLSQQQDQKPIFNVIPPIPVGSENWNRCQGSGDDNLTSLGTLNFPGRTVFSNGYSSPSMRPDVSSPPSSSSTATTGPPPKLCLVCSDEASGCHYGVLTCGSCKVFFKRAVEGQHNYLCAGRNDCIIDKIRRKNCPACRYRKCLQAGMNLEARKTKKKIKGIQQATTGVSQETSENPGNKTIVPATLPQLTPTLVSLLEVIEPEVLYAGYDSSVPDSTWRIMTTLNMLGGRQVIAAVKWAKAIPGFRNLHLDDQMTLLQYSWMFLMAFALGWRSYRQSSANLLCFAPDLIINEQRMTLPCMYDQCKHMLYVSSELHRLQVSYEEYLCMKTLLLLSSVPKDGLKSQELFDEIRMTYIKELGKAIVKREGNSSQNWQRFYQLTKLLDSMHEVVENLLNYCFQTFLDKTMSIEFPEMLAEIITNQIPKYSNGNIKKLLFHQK

B1: Recombinant human CASP1 (Enzo Life Sciences CASP1 assay kit for drug discovery, catalog number BML-AK701-0001) (protein)
chain: NPAMPTSSGSEGNVKLCSLEEAQRIWKQKSAEIYPIMDKSSRTRLALIICNEEFDSIPRRTGAEVDITGMTMLLQNLGYSVDVKKNLTASDMTTELEAFAHRPEHKTSDSTFLVFMSHGIREGICGKKHSEQVPDILQLNAIFNMLNTKNCPSLKDKPKVIIIQACRGDSPGVVWFKDSVGVSGNLSLPTTEEFEDDAIKKAHIEKDFIAFCSSTPDNVSWRHPTMGSVFIGRLIEHMQEYACSCDVEEIFRKVRFSFEQPDGRAQMPTTERVTLTRCFYLFPGH
**Q.** For B1, which “cleavage of GR in CASP1 enzymatic assay (western blot)” value is on record?
**A.** enzymatic assays were performed that revealed glucocorticoid receptor (NR3C1) cleavage by recombinant CASP1
